Assay: soluble fraction after stress (log2 fold change); higher = more stays soluble; pooled small domains, quantitative proteomics
Conditions: stress: pH 4
How it was run: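 After pH 4 stress, pooled custom libraries of small protein domains were quantified with high-throughput quantitative proteomics. Aggregation propensity is taken from the fold change in each domain's soluble amount following the acid stress. The scale is log2, where higher values mean more stayed soluble.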

Sequence	soluble fraction (log2)
HMGMSQQKQSSTVRIIMQDISDANEGLMKMSQIIDAALAEGISETIVRNAISNLHRGGTIYESQTGTYQW	-0.392
HMGMTDEELNREEERVVAELEAKDEEELTIYNEEDLTFEETLDLPEGSLMRDRENGMIYLKVLDIWMPY	-0.831
HMGMTNRIKELRKAKGYRQEDLAAALGVSRQTIIAVENNKYNPTLELAMKLARHLQTTVEELFQL	-0.885
HMGMVEFEIGERDHSEDVSRKLFEAGLIEDASDFNQYMIEKKMDDHLQTGKYQIPKGATKDEILELIVR	-0.674
HMGMYAEERHQAIASLARKHGRVSVAELAERFNVTSETIRRDLDSLARRGLLTRVHGGAVPVE	≥ 0.43
HMGMYFTEMRKNEGLIALNGVAESNKRVSDLMDNLKDSSSFDAADIKAVKSGSGDASSLMDFELLVT	-0.452
HMGNASQAARRQRIVDAALELLQDRPYDQIQMRDVAEGAGVALGTLYRYFPSKEQLFAHVLVE	-0.701
HMGNEMQVPNVAGKTVDEAIEIFNNMGLKVAAENKYAQSDDVKEGDVVKTDPSSGRNVKKGSEITLYISQG	0.291
HMGNEVMYRQDLSEQELLSFIKKYTGQDEVTHIVVGAPKQRDNTPSPVETKITPFVVQLKAQFPDVNVV	-0.217
HMGNFNDMLKYLRVREKMSQAELADKLGVSKSTVGMYELGKREPDFETLEAIADLFNVDMNFLLGK	-0.439
HMGNHMSFKMWGEQLQEAFRALETYDTQKAKTILNELVRFPIDSDITKALKGIISNIDDMMA	-0.721
HMGNLPPAVINARIKVSPAGRGVFVGFDKGSTSTEAKYADAIRGYLPNIEFNKDDHESVVTVPFNFR	-0.0258
HMGNTLAYSEFRQKVQEGAVKQVVLSEDRVTGELTNGDRFTANIVRDPELLKMLNDNNVKYDGKPT	-0.0484
HMGNVGEAIEALVKGFQEGNQFQTLLGVTGSGKTFTMANVIAALNKPTLIISHNKTLAAQLYLSLIHIS	-0.255
HMGNYRVIKWGMQGDDVKLMQQMLINRGYVLSATGKYASRTLKAIMAFQEANGLKADGIVGKRTWNKLL	-0.134
HMGPAYEKIVANGQTFYRYNVKKGEGLMAVSRTFNVSVNDILKYNPSAASGLKDGQELLIPVIDDA	-0.29
HMGPESKLTDAIKDYIYALYENLKGKSKFRNTIIEEVKKLYGVDISRESIRRVVNQKTDAETTENDDDEKA	0.197
HMGPKALLKIPGLQEVDAELLFKEGYKSISAVASADPEMLKAIPGVDEQKVTEWVTGAEQILSQQVNKGA	0.25
HMGPKPVDMSPIPEGQRNQVLHDWMYGRAANHPENWGQIRSDALERGLKSGLKADEIHAITGSVARALGLE	0.0794
HMGPNPLTEREQEILQLARTGEPVARLAKRLFLSPGTVRNHLSSAIGKLGAANRVEAAQFATERGW	-0.0238
HMGPSLDAVREQIRDLIAEEDKSAPYSDLSLVAELEKRGIHISRRTIAKYRGEMGIPNSDQRRYF	0.325
HMGPSSIVVYVSGAVKTPGVYTLAPGSRVDDAVRAAGGLSERAESAGTNLAAQLSDGEHVHVAAAGE	-0.159
HMGPTGGLTPHIAIADKRASEAIEFYKQAFGAVEQVRMPAEDGVRLMHAHLLVNGSSLMMHDDFPEYSGQ	0.0087

Sequence	soluble fraction (log2)
HMGPTLSPAEKRVFEVIPYDAILQDMVIRAAELPPGEVLAALTTLELKGLIKRLPGNLVMRRAR	-0.267
HMGPVALGVTDGATYFSSVTITFRRGTAVLDGEPIASGHTVYKSGAHSLTLTAGGKTRTIAFTMDT	0.139
HMGPVPLASAADMEKFYSHLQQVLDEVDFKDRTGSGHLMARLRRLFQRTVLDQNEINILRGILMAVQGRR	-0.959
HMGQGAASAPLRELGVDPVSEKQMVLKDGRFGPYVTDGETNASLRKGDEVETITDERASELLQMRRDAGPS	0.0347
HMGQISDDGALKKLASEVLAANPQALADWKAGKQQAVSFLVGQAMKASKGRGDAALLGELIRAALD	0.0477
HMGQKASEVEKIFVELQQQIIRGDLPPGYRLVESQIAAQFGVSRTPARLAIERLATAGLVAHETNRGATVH	-0.36
HMGQKNEDESLAKFYVHKKGNQYGPYSLIQIREYLKNNSFSLDDLASWDGQSWKKISQIPNLN	0.182
HMGQLTDKQILLFSGKLAYEPTFASKYSKAGESYDDFIIRISGDLTDPKKIKEYSPYLKELGF	-0.954
HMGQNYTIVKGDSLWKIAQKQYGDGSQWKKIYDANKDAIESAAKKYGKKSSDSGKWIYPGVSLII	0.134
HMGQVEVPDVVGMTQERAITTLTEAKLVAQIQLTPADVAKGLVAAQSPRAGLKIGEGSFVTIEVSTGPVI	0.229
HMGQVFEGTFNRKANGKNSVTPAEGGEPVFIAERNSLHAMNGDLVKVSLLAKKKHQPREAQVIEILKRSD	0.338
HMGQVPPLTRRETEIARLVSRGLSNKEIASTLVISPRTAEGHVEHILDKLGFSSRTQIATWLNEQTRNGK	0.313
HMGRDWKTDLLNLATARGWGDVSYEVTGEGPDHARVYTAVAIVANQKTGTGVGPSKKEAERLAAEQAYRML	0.132
HMGRELSDLELSLLRILDDKIPLLIDEAADRLQLPVAQVLSAVTIMEIDGLIRREGMRKYLRTVEVEETK	-1.3
HMGRFAETVEHIVAAQLARRQGIPTMEQFASFFNVSRATFQRRLGEEGETLEQIKQRVRLRLALELLHP	-0.441
HMGRGAAKGPLKELGLDPVTGRPLVVKDGKFGMYVTDGETNAGLRRGDLVEQLTLDRGMELLAERRARADQ	-0.258
HMGRKIDDPSSMTGAEKAAVILLALGDEQRQLWEMMDDEEIRVVSQAMVNLGNVTSGAVEKLIMEFVGSMS	-0.425
HMGRKPATTIPLQVRNAVLDLYRTKYYGANFQHYTELLHEHEGIRISTSSVAKILEAEYILSPK	-0.838
HMGRKPVSPEIVERVLQLAKSNPDWGYEHIAGTMRYLGYNVSATTIRHILEANGIVPDPERRL	-0.543
HMGRMSLDEAKAVILPIGEHKGHTMGEVLAIKPGLIDFYASQKFNSGKYPYLKEAAQVILENQG	0.173
HMGRRERKKLQSRRAIIEAAVTEFKEKGFREASVADIMTRADLGLGTFYNYFQSKEDILMSLLS	-0.0713
HMGRRRAAPQEPLRQFPASPVTGQPIKLLLGQYGPYVTDGTTNASLPKGSSPDELTFEQATQLLAERALRG	0.0322
HMGRSARVQQAVHQAVRALLEENDGERSALSVPLVAERAGVNSSTIYRRWGDLPRLLAAVASN	0.0284

Sequence	soluble fraction (log2)
HMGRTVKGVNFVGLRDAGDPVDLAEIYSKEGADELVFLDITATHEKRKTLLDLVTRVAERINIPFTVGGGI	-0.331
HMGSALLEAGADDAGQRLDQWLAAKLGPSISRSRVQALIKQGAVLVGGKPAGEAKRKLVAGDVVSVALPEP	0.133
HMGSDLVAWAQTRIGRHPEEAADVIAALIDRHGEARVRAASRSLLARKFAHASDLRTAIDAAIG	0.0531
HMGSEEMLGALGVVERATDDGDWWIAVHGEHWRARSAQALVPGDRVRVARIDGLTLTVTPIA	0.0708
HMGSEGVKVEDTIGMSEAEATATLGKSGFVVNKTESHDPYIKAGNVITQSPAAGSKAPKGTTVTLTISLGP	0.423
HMGSEISYSEFLNRVEQGQVAAVRLDGEQIFITGPTGEAYQTIQPRNTDVLPDLREAGVEIQAAPQ	-0.675
HMGSEYPSNPLASRWAKGVRLYHDEWGYGVIQAARGSEPDDYVITVRFESGAEKSFLPKFQAHSLMIVKD	-0.974
HMGSGQVTLPDLEGKSMKEVARILSQLGLHLSPDGHGLAFKQSPAAGTRVPVGSTIKVSFQPL	-0.208
HMGSKKAIPYVSGMSETEAQNELEEAGFKVTSSFQYDDSVESGKVISTTPEAGTKAEKGSTVTMLVSQGSN	0.0696
HMGSLVQTAMQAVTKHIHDNAMRVGDTLPGEGHFAETLGVSRAVMREAFGALAALKLIDVGNGRKPRVGR	0.091
HMGSNATIKYAIKGDESLVQVAQKFNVTVSELRSWNNISAFENAKTGQELVINVPASKYETYFALANT	-0.0194
HMGSNLSFDLSQIIASRYQEKAAELGLTAPSLARTDLSPQEQATAEVVARAIIADYYDQRVAPFNDLIPQ	-1.54
HMGSNRPLALGDVVRIEGSKTLGTILELNAKDAVVALGALKTTLPLSRIHHASSQESQRLKRQATQAPLR	0.0932
HMGSPKLVIKNGQVDYQVLKKEKLDLLELTSLLRGQNTFSIREIEYAIIEPNGVITVIKKPEYQSVVKGDL	-1
HMGSPVTAVMNRVLNETERQIVTLHVISGFKHREIAELLEKPVGTVLWTYNNALGKMRKAMQRE	-0.603
HMGSRRFGDSNHAAKLTEEQVVEIRELAAAGATTKFLAEMVGMHPNYVGLILRGLSWPEAGGPLRVA	0.0889
HMGSVDMVYGDHKINSEHMDLSFKNQTAVLYDKVNYKSSLSMLSADKILVNFLNKYTKIEMNDENNNILIQ	-0.128
HMGSVNDNVQKLTSQIGETTETGDTITPEDVELYKKMVDPLSTMAQKLEAAEILKLKGIIGSNGIIV	-0.0476
HMGSWEDALKNWVDSALASGQKGILEQAVPKFERIMIETALTHTAGRRRDASLLLGWGRNTLTRKIKELGI	0.0465
HMGTAESIRLFLSSGLIKGVGEALAGRIVDTFGTDTFDIIENHPELLAGVKGISHRLAMSIYESFSQHIGV	-0.951
HMGTDIGADKAAQTALADAGLSSSQVTGLRTKQDWDDGQLRYEVEFRAGGVEYDYELAADGTILKADRDT	0.254
HMGTEITEQRAKEIALENAKVAESDVTAMRVKKEMDDGVWRYDVEFYVQNKEYDYEINAMDGTILSVDYD	0.0797

Reference: the domain aggregation screens of Martell et al. (2025)
